Assay [1] addresses T1, EGFR on NR6 fibroblast cells (Homo sapiens, UniProt P00533).
T1 construct: expressed in transfected cells; host or cells: NR6 fibroblast cells
As to the kind of experiment: Competition binding of soluble EGF to EGFR on NR6 fibroblast cells (flow cytometry, Alexa-488 labeled wt EGF). As to conditions: competition with Alexa-488 labeled wt EGF, 6 hr at 4° C., read-out: Equilibrium dissociation constants. The protocol: (§1) Fluorescence intensity of cell surface labeling was measured by flow cytometry.
as §1
This mutant was tested using one of the binding assays described herein in which binding to EGFR expressed on cells is measured. […] Fluorescence intensity of cell surface labeling was measured by flow cytometry.

In assay [2] the target is EGFR (Homo sapiens, UniProt P00533). The conditions noted are these: Mullenbach et al., Protein Eng 11:473-480, 1998; cited from earlier work.

For the substance “NSYSECPLSYDGYCLNDGVCRYIEALDRYACNCVVGYIGERCQYRDLKWWWLR (Mutant of human epidermal growth factor) [clone 107, second generation EGF mutant from the SOSM library]”, the Kd in assay [1] was 0.13 ± 0.01 nM. For the substance “G12Q: previously described EGF containing a G12Q mutation (Mullenbach et al.) (NSDSECPLSHDQYCLHDGVCMYIEALDKYACNCVVGYIGERCQYRDLKWWELR)”, in assay [2], the “increase in affinity for EGFR over wt EGF (previous data)” value is reported as 5 fold.

Source of the values: patent publication US8247531B2, “Mutant epidermal growth factor polypeptides, nucleic acids, and uses therefor” (priority 2006, dated 2012).
